In PMC4839565, “Evolution of Telomeres in Schizosaccharomyces pombe and Its Possible Relationship to the Diversification of Telomere Binding Proteins”:

T1: Teb1p (6HN-Teb1) (Schizosaccharomyces pombe, UniProt Q10274 2-390)
T1 sequence: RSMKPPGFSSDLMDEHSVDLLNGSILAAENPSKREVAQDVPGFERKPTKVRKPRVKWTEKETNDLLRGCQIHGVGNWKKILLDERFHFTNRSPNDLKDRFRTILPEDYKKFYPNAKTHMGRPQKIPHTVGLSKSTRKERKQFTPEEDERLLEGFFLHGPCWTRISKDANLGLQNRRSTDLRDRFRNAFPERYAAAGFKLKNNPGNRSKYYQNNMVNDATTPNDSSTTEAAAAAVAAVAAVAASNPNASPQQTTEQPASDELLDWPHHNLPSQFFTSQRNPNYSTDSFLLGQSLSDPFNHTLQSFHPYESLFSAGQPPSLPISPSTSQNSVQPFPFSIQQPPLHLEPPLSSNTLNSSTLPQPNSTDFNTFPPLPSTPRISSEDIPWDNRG

T2: Taz1p (6HN-Taz1) (Schizosaccharomyces pombe, UniProt P79005 2-663)
T2 sequence: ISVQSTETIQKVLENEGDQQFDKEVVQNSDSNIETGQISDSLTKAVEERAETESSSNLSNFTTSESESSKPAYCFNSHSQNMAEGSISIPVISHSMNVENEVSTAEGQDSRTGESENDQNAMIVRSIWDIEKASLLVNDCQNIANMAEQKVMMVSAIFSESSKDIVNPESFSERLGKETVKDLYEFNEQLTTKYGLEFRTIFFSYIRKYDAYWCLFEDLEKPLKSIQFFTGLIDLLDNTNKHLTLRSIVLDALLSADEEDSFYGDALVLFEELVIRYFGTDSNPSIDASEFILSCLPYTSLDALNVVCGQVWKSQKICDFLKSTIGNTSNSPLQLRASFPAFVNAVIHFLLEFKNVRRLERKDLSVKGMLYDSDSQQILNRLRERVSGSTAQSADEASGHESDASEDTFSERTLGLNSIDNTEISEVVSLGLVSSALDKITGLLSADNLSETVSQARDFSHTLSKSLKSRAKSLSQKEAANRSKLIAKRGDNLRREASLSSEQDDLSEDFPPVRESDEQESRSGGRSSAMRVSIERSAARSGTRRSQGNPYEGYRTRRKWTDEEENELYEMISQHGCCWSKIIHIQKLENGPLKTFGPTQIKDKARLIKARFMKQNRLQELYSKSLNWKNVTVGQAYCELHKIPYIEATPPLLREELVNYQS

B1: HisBoxMut (dsDNA)
DNA 1: AGGGTGTGAGTTGTGAT
DNA 2: ATCACAACTCACACCCT
B2: HisBox (dsDNA)
DNA 1: AGGGTTAGGGTTGTGAT
DNA 2: ATCACAACCCTAACCCT
B3: HisBoxFlankPart (dsDNA)
DNA 1: AGGGTTAGGGTTACAGC
DNA 2: GCTGTAACCCTAACCCT
B4: SpTEL (dsDNA)
DNA 1: TTACAGGGGGTTACAGGG
DNA 2: CCCTGTAACCCCCTGTAA
B5: HsTEL (dsDNA)
DNA 1: GTTAGGGTTAGGGTTAG
DNA 2: CTAACCCTAACCCTAAC

Legend:
Teb1p (6HN-Teb1) [1] = biological target: T1, Teb1p (6HN-Teb1); assay: EMSA; no DTT; HNE: 20 mM HEPES-NaOH pH 7.5, 1 mM EDTA, 100 mM NaCl (Teb1); HNED = HNE + 0.1 mM DTT (Taz1). FA: 2 nM DNA, 25 C (Teb1/SpTEL 37 C). EMSA: 15 nM DNA, 0.05-4.5 uM; settings: protein: recombinant; tags: N-terminal 6HN; C-terminal GST removed with PreScission protease (residual site residues); label: 5'-32P on strand A; blunt
Taz1p (6HN-Taz1) = biological target: T2, Taz1p (6HN-Taz1); assay: fluorescence anisotropy; HNED, 0.1 mM DTT, 25 C; HNE: 20 mM HEPES-NaOH pH 7.5, 1 mM EDTA, 100 mM NaCl (Teb1); HNED = HNE + 0.1 mM DTT (Taz1). FA: 2 nM DNA, 25 C (Teb1/SpTEL 37 C). EMSA: 15 nM DNA, 0.05-4.5 uM; settings: protein: recombinant; tags: N-terminal 6HN; chain copies: 2; EMSA: 5'-32P on strand A; blunt
Teb1p (6HN-Teb1) [2] = biological target: T1, Teb1p (6HN-Teb1); assay: fluorescence anisotropy; HNE, no DTT, 25 C; HNE: 20 mM HEPES-NaOH pH 7.5, 1 mM EDTA, 100 mM NaCl (Teb1); HNED = HNE + 0.1 mM DTT (Taz1). FA: 2 nM DNA, 25 C (Teb1/SpTEL 37 C). EMSA: 15 nM DNA, 0.05-4.5 uM; settings: protein: recombinant; tags: N-terminal 6HN; C-terminal GST removed with PreScission protease (residual site residues); EMSA: 5'-32P on strand A; blunt
Teb1p (6HN-Teb1) [3] = biological target: T1, Teb1p (6HN-Teb1); assay: EMSA; no DTT; almost complete restoration; HNE: 20 mM HEPES-NaOH pH 7.5, 1 mM EDTA, 100 mM NaCl (Teb1); HNED = HNE + 0.1 mM DTT (Taz1). FA: 2 nM DNA, 25 C (Teb1/SpTEL 37 C). EMSA: 15 nM DNA, 0.05-4.5 uM; settings: protein: recombinant; tags: N-terminal 6HN; C-terminal GST removed with PreScission protease (residual site residues); label: 5'-32P on strand A; blunt
Teb1p (6HN-Teb1) [4] = biological target: T1, Teb1p (6HN-Teb1); assay: fluorescence anisotropy; HNE, no DTT, 37 C; HNE: 20 mM HEPES-NaOH pH 7.5, 1 mM EDTA, 100 mM NaCl (Teb1); HNED = HNE + 0.1 mM DTT (Taz1). FA: 2 nM DNA, 25 C (Teb1/SpTEL 37 C). EMSA: 15 nM DNA, 0.05-4.5 uM; settings: protein: recombinant; tags: N-terminal 6HN; C-terminal GST removed with PreScission protease (residual site residues); EMSA: 5'-32P on strand A; blunt

Row | Binder | Kd (Taz1p (6HN-Taz1)) | Kd (Teb1p (6HN-Teb1) [2]) | also measured
1 | B1 |  |  | binding result (Teb1p (6HN-Teb1) [1]): no binding
2 | B2 | 380 ± 50 nM | 53 ± 6 nM | 
3 | B3 |  |  | binding result (Teb1p (6HN-Teb1) [3]): binds
4 | B4 | 115 ± 9 nM |  | Kd (Teb1p (6HN-Teb1) [4]): 380 ± 30 nM
5 | B5 | 54 ± 5 nM | 31 ± 5 nM | 
